Reference: patent US20210198640A1 (DENALI THERAPEUTICS, published 2021)
Positions count from the first letter of the chain named.

B1: recombinant cyno TfR ectodomain (ECD), biotinylated (receptor)
chain: CKGVEPKTECERLAGTESPAREEPEEDFPAAPRLYWDDLKRKLSEKLDTTDFTSTIKLLNENLYVPREAGSQKDENLALYIENQFREFKLSKVWRDQHFVKIQVKDSAQNSVIIVDKNGGLVYLVENPGGYVAYSKAATVTGKLVHANFGTKKDFEDLDSPVNGSIVIVRAGKITFAEKVANAESLNAIGVLIYMDQTKFPIVKADLSFFGHAHLGTGDPYTPGFPSFNHTQFPPSQSSGLPNIPVQTISRAAAEKLFGNMEGDCPSDWKTDSTCKMVTSENKSVKLTVSNVLKETKILNIFGVIKGFVEPDHYVVVGAQRDAWGPGAAKSSVGTALLLKLAQMFSDMVLKDGFQPSRSIIFASWSAGDFGSVGATEWLEGYLSSLHLKAFTYINLDKAVLGTSNFKVSASPLLYTLIEKTMQDVKHPVTGRSLYQDSNWASKVEKLTLDNAAFPFLAYSGIPAVSFCFCEDTDYPYLGTTMDTYKELVERIPELNKVARAAAEVAGQFVIKLTHDTELNLDYERYNSQLLLFLRDLNQYRADVKEMGLSLQWLYSARGDFFRATSRLTTDFRNAEKRDKFVMKKLNDRVMRVEYYFLSPYVSPKESPFRHVFWGSGSHTLSALLESLKLRRQNNSAFNETLFRNQLALATWTIQGAANALSGDVWDIDNEF
B2: Clone CH3C.3.2-1 (designed binder)
chain: APELLGGPSVFLFPPKPKDTLMISRTPEVTCVVVDVSHEDPEVKFNWYVDGVEVHNAKTKPREEQYNSTYRVVSVLTVLHQDWLNGKEYKCKVSNKALPAPIEKTISKAKGQPREPQVYTLPPSRDELTKNQVSLTCLVKGFYPSDIAVEWESLGHVWVNFKTTPPVLDSDGSFFLYSKLTVPKSTWQQGWVFSCSVMHEALHNHYTQKSLSLSPGK
notes: modified Fc polypeptide
B3: Clone CH3C.34 (designed binder)
chain: B2 chain with H156L, N160F, F161S
notes: modified Fc polypeptide
B4: Clone CH3C.21 (designed binder)
chain: B2 chain with H156L, N160G, F161Y
notes: modified Fc polypeptide
B5: Clone CH3C.25 (designed binder)
chain: B2 chain with L154M, N160G, F161Y, P183D
notes: modified Fc polypeptide

Assays:
CH3C.35.N153.bi = test: SPR, TfR ECD captured, clone injected, steady state
[1] = biological target: T1, human transferrin receptor protein 1 (TfR) (human, UniProt P02786 89-760, limits assumed); test: ELISA, TfR coated on plate, Fc-Fab fusion
T1 construct: also called human TfR; hTfR

[2] = biological target: T1, human transferrin receptor protein 1 …; test: selection from soft randomization libraries

Binder	binding result [2]	further results
B1	–	Kd (CH3C.35.N153.bi): 3.3 µM
B2	–	binding result [1]: binds
B3	binds	–
B4	binds	–
B5	binds	–
